Paper PMC8849053
“And” between values parts separate entries of the source, which are not always exact repeats. Equal values may be shown once.

How the values were obtained:
[1] = molecular target: SARS-CoV-2 spike protein S1 (SARS-CoV-2); assay: ITC
[2] = molecular target: SARS-CoV-2 spike protein S2 (SARS-CoV-2); assay: ITC

truncated canavalin (from UniProt P10562 242-445) (domain or fragment)
Kd [1]: 20 µM and 100 µM | dH [1]: -6 kcal/mol and -7 kcal/mol | Kd [2]: 10 µM and 80 µM | dH [2]: -0.8 kcal/mol
